Consider one substance from article PMC9478129.

Data set [1] concerns Aa-Cascade Avi-Cas6f, mSav-ATTO647N labelled;Aa1-AcrIF9 (Aggregatibacter actinomycetemcomitans;Aggregatibacter actinomycetemcomitans?). Put plainly: single-molecule DNA curtains. To be noted: with AcrIF9, mean off-target dwell time 18.6 s, EMSA: 1x TAE, 200 mM NaCl, 10% glycerol, 0.1 mg/mL BSA, 20 nM DNA, 37 C (22 C for AcrIF9 mutants), 1% agarose, footprint: same buffer, 2 mM KMnO4, AFM: …. (A gel shift assay detects complexes by their altered migration in electrophoresis.)

The subject of data set [2] is Aa-Cascade Avi-Cas6f, mSav-ATTO647N labelled (Aggregatibacter actinomycetemcomitans). Put plainly: single-molecule DNA curtains. Particulars: EMSA: 1x TAE, 200 mM NaCl, 10% glycerol, 0.1 mg/mL BSA, 20 nM DNA, 37 C (22 C for AcrIF9 mutants), 1% agarose, footprint: same buffer, 2 mM KMnO4, AFM: ….

Take bacteriophage lambda DNA with target: the results for the binding signal (% on-target events) in data set [1] and in data set [2] were 8 and 18, respectively.
